Assay results from patent US12036234B2, “Heparin conjugated to collagen-binding peptides for targeting to biological and synthetic tissues” (Northwestern University, priority 2017, dated 2024).
Ends that are not written are not given here.

Molecular target: collagen IV (Mus musculus, UniProt P02463+P08122)
Test: Cy5 conjugate binding to surface coated collagen IV
Settings: 30 mg/ml, improved batch, 24 hour incubation
Description: Heparin(Cy5)-CBP conjugates were synthesized using N-(3-dimethylaminopropyl)-N′-ethylcarbodiimide/N-hydroxyl succinimide (EDC/NHS) chemistry (1,2). Briefly, 1 mM of heparin sodium salt or fluorescently pre-conjugated Heparin(Cyanine5) (Hep-Cy5) mixed with 120 mM EDC and 60 mM NHS in 2-(N-morpholino) ethanesulfonic acid (MES) buffer at pH 6.5. This was rocked for 4 hours at 20° C. 1 mM of […] binding peptide (CQDSETRTFY (SEQ ID NO:1), CBP) or a scrambled sequence (CDEFQRSTTY (SEQ ID NO:2), CBPi) was added, and allowed to rock overnight at 4° C. This mixture was dialyzed to exclude molecules […] 3.5 kDa and lyophilized to dry. Four molecular assays were used to assess the functional synthesis of these conjugates. An Ellman's assay is capable of colormetrically labeling the thiol containing cysteine amino acid, and was used to assess the cysteine molar quantity of the whole conjugate (3). A dimethylmethylene blue assay was used to stain the glycosaminoglycan present in heparin conjugates to determine the heparin molar quantity (4). A colormetric kit was used to assess clotting via factor Xa (5). Effective CBP related binding of the conjugate was measured via the Cy5 fluorophore, using a 24 hour incubation with surface coated collagen IV (6). […]

Sequence of collagen IV (P02463 173-1669): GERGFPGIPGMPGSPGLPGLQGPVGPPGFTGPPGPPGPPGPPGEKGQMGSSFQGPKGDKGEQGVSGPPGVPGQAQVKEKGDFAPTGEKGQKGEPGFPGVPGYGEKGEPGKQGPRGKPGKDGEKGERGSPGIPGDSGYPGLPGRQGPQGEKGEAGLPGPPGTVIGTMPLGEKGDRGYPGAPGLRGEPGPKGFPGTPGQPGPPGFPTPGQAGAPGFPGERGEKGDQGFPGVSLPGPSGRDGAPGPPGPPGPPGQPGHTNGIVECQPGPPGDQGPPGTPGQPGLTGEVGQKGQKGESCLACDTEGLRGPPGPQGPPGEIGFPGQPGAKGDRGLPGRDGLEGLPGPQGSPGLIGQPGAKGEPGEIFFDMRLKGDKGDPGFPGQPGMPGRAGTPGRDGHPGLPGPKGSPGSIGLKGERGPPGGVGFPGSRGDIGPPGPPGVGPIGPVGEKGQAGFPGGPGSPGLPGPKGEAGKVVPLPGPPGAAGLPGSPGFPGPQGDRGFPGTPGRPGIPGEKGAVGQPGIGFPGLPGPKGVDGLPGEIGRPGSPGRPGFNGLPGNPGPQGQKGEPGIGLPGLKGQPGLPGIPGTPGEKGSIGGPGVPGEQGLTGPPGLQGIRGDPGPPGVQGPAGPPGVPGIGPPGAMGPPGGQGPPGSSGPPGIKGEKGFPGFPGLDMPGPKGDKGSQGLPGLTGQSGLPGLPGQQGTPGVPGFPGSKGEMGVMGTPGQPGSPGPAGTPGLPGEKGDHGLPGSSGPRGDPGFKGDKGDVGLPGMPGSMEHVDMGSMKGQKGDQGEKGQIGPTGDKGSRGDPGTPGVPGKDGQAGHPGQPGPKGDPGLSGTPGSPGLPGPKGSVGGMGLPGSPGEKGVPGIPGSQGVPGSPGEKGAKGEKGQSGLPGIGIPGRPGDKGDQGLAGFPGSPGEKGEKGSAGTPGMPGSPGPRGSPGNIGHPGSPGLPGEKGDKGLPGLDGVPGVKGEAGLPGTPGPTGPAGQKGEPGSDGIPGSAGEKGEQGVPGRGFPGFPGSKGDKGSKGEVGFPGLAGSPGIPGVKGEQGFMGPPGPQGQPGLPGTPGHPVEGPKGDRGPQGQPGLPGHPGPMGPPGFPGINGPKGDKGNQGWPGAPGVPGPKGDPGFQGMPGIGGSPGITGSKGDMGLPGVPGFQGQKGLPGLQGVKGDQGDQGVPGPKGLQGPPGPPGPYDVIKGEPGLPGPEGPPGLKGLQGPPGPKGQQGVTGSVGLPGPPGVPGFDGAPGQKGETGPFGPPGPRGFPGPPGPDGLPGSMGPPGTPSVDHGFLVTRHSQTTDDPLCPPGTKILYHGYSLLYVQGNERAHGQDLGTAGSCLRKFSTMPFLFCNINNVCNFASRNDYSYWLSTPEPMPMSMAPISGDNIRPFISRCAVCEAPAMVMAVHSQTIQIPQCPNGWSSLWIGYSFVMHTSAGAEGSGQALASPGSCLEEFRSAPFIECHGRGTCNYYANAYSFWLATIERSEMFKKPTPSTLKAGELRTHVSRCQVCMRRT
Sequence of collagen IV (P08122 184-1707): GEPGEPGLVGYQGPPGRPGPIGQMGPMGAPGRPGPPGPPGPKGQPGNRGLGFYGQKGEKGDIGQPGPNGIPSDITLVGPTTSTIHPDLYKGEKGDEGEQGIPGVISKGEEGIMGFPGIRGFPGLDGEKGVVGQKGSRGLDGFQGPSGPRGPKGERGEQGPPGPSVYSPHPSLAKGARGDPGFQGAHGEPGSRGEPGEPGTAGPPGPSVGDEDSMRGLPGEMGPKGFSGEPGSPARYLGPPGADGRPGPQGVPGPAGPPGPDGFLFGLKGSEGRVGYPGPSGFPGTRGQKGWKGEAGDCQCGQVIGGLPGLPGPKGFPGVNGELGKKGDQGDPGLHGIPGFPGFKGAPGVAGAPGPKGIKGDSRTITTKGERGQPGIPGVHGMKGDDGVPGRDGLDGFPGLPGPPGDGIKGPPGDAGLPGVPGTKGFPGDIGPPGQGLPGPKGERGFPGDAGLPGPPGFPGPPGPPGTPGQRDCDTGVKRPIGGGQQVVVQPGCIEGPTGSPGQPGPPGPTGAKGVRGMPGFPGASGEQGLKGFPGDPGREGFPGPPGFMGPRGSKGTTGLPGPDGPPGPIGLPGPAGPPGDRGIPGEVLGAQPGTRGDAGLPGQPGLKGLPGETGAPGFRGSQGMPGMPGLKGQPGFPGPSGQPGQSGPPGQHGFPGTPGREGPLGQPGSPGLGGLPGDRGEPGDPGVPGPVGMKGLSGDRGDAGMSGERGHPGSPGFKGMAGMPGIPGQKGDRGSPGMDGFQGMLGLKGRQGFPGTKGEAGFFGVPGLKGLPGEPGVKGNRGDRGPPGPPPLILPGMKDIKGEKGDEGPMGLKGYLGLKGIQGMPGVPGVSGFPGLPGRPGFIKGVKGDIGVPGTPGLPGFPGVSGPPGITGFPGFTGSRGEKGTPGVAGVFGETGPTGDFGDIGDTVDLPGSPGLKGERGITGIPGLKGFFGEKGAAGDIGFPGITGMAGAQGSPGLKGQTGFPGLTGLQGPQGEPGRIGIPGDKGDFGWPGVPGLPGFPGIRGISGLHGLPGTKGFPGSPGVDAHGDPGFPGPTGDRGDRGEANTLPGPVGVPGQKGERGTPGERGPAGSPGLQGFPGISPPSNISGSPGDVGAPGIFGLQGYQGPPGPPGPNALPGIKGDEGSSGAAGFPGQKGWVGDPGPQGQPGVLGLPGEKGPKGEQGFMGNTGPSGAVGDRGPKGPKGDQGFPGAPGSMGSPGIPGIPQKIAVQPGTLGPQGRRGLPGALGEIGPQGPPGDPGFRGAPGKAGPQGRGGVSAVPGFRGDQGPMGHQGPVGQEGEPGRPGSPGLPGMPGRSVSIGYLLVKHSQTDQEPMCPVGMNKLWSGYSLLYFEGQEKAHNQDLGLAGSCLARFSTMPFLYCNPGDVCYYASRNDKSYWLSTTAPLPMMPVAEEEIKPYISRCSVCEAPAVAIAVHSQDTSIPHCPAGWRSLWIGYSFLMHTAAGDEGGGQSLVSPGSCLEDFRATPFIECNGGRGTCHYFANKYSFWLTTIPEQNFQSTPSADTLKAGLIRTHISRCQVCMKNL

- binding to collagen IV relative to scrambled CBPi control: four times more
Substance: CBP-Hep(Cy5): Cy5-labelled heparin conjugated with CBP by EDC/NHS chemistry (CQDSETRTFY; also: conjugated to Cy5-labelled heparin by EDC/NHS, place not given here)
